Data reported in patent US20210206877A1 (Genentech, published 2021).
Read-outs that look alike come from different tables or passages of the source.

Experiments:
Assay in all cases: cell-based or functional assay
[1] = molecular target: BACE1 ECD (as used in the enzyme activity assay) (UniProt P56817 22-457, limits assumed)
[2] = molecular target: T1, BACE1 endogenous to primary cortical neurons from E16.5 CD1 mice (mouse, UniProt P56818 46-501)
human BACE1 ECD = human BACE1 ECD (human, UniProt P56817)
murine BACE1 ECD = molecular target: murine BACE1 ECD
[3] = molecular target: T1, BACE1 endogenous to primary cortical …; remark: listed apart in the source
[4] = molecular target: T1, BACE1 endogenous to primary cortical …; remark: listed apart in the source
Wherever % inhibition, FRET short substrate assay (negative = activation) is given: test concentration or dose not given here.

Sequence of human BACE1 ECD (P56817 22-457): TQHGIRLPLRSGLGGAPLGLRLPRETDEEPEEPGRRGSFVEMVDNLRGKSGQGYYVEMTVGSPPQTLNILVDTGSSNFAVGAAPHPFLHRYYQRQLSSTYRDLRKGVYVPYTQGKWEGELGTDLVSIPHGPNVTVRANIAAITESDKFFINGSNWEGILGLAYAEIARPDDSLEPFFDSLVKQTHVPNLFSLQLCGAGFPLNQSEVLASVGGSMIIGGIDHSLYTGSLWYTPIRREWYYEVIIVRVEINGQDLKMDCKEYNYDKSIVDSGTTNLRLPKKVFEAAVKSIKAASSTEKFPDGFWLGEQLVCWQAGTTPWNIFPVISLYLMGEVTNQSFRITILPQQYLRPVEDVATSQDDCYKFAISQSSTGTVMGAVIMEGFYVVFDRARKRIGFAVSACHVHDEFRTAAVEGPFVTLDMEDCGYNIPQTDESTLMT
Sequence of BACE1 ECD (as used in the enzyme activity assay) (P56817 22-457 limits assumed): as the sequence (P56817 22-457) above
T1 sequence (P56818 46-501): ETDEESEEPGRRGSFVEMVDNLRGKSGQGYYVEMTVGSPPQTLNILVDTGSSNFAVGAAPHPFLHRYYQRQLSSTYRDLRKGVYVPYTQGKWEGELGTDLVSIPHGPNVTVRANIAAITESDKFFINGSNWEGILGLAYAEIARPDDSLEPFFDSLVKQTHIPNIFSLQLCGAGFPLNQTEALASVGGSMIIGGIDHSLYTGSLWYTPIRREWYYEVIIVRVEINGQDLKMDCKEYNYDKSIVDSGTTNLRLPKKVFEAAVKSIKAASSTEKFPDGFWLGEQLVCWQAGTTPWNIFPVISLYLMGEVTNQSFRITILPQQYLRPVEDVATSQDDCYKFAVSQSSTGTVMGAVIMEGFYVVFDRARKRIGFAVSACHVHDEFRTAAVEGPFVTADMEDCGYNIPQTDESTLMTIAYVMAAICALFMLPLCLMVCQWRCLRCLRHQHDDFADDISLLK
Sequence of murine BACE1 ECD (single chain, as listed by the source limits assumed): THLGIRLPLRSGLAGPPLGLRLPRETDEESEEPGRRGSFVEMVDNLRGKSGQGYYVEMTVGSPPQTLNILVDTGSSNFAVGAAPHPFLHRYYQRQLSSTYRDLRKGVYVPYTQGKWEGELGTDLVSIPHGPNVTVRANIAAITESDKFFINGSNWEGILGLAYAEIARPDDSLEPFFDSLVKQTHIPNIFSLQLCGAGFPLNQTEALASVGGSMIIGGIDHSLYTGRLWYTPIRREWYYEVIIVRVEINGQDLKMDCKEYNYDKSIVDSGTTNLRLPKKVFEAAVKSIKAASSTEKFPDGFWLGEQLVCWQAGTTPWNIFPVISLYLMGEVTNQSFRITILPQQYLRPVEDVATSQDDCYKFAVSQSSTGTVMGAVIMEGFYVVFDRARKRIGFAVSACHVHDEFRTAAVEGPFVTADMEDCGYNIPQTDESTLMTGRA

Binder | EC50, FRET short substrate assay [1] [nM] | EC50, HTRF long substrate assay [1] [nM] | IC50, Abeta x-40 in mouse cortical neurons (row 5894*, second run) [2] [nM] | max % inhibition, Abeta x-40 in mouse cortical neurons [2] [%] | % inhibition, FRET short substrate assay (negative = activation) (human BACE1 ECD) [%] | % inhibition, FRET short substrate assay (negative = activation) (murine BACE1 ECD) [%] | max % inhibition, Abeta x-40 in mouse cortical neurons [3] [%] | IC50, Abeta x-40 in mouse cortical neurons (row 5896*, second run) [2] [nM] | IC50, Abeta x-40 in mouse cortical neurons (row 5903*, second run) [4] [nM] | max % inhibition, Abeta x-40 in mouse cortical neurons [4] [%] | IC50, Abeta x-40 in mouse cortical neurons (row 5905*, second run) [4] [nM]
5894 (antibody, V domains shown) VH: QVQLVQSGAEVKKPGSSVKVSCKASGGTFSGYAISWVRQAPGQGLEWMGNIIPGFGTANYAQKFQGRVTITADESTSTAYMELSSLRSEDTAVYYCARSGGTKYGMLDVWGQGTMVTVSS VL: EIVMTQSPATLSVSPGERATLSCRASQSVGSNLAWYQQKPGQAPRLLIYGASTRATGIPARFSGSGSGTEFTLTISSLQSEDFAVYYCQQLYTWPPRTFGGGTKVEIK | 8.58 | 1.79 | 5.43 | 78 | 69 | 69 | – | – | – | – | –
5888 (antibody, V domains shown) VH: QVQLVQSGAEVKKPGSSVKVSCKASGGTFWKYAISWVRQAPGQGLEWMGNIIPGFGTANYAQKFRGRVTITADESTSTAYMELSSLRSEDTAVYYCARSGGTKYGMLDVWGQGTMVTVSS VL: EIVMTQSPATLSVSPGERATLSCRASQSVSSNLAWYQQKPGQAPRLLIYGASTRATGIPARFSGSGSGTEFTLTISSLQSEDFAVYYCQQLILWPPRTFGGGTKVEIK | 0.602 | 2.5 | – | 82 | -86 | -183 | – | – | – | – | –
5890 (antibody, V domains shown) VH: QVQLVQSGAEVKKPGSSVKVSCKASGGTFSSYAISWVRQAPGQGLEWMGNIIPGFGTANYAQKFQGRVTITADESTSTAYMELSSLRSEDTAVYYCARSGGTKYGMLDVWGQGTMVTVSS VL: EIVMTQSPATLSVSPGERATLSCRASQSVGSNLAWYQQKPGQAPRLLIYGASTRATGIPARFSGSGSGTEFTLTISSLQSEDFAVYYCQQLYTWPPRTFGGGTKVEIK | 32.4 | 4.06 | – | 77 | 66 | 69 | – | – | – | – | –
5891 (antibody, V domains shown) VH: QVQLVQSGAEVKKPGSSVKVSCKASGGTFSSYAISWVRQAPGQGLEWMGNIIPIFGPANYAQKFQGRVTITADESTSTAYMELSSLRSEDTAVYYCARSGGTKYGMLDVWGQGTMVTVSS VL: EIVMTQSPATLSVSPGERATLSCRASQSVGSNLAWYQQKPGQAPRLLIYGASTRATGIPARFSGSGSGTEFTLTISSLQSEDFAVYYCQQLYTWPPRTFGGGTKVEIK | 12.4 | 3.03 | – | 78 | 71 | 70 | – | – | – | – | –
5892 (antibody, V domains shown) VH: QVQLVQSGAEVKKPGSSVKVSCKASGGTFSSYAISWVRQAPGQGLEWMGNIIPIFGTATYAQKFQGRVTITADESTSTAYMELSSLRSEDTAVYYCARSGGTKYGMLDVWGQGTMVTVSS VL: EIVMTQSPATLSVSPGERATLSCRASQSVGSNLAWYQQKPGQAPRLLIYGASTRATGIPARFSGSGSGTEFTLTISSLQSEDFAVYYCQQLYTWPPRTFGGGTKVEIK | 16.4 | 1.19 | – | 73 | 64 | 64 | – | – | – | – | –
5893 (antibody, V domains shown) VH: QVQLVQSGAEVKKPGSSVKVSCKASGGTFRGYAISWVRQAPGQGLEWMGNIIPGFGTANYAQKFQGRVTITADESTSTAYMELSSLRSEDTAVYYCARSGGTKYGMLDVWGQGTMVTVSS VL: EIVMTQSPATLSVSPGERATLSCRASQSVGSNLAWYQQKPGQAPRLLIYGASTRATGIPARFSGSGSGTEFTLTISSLQSEDFAVYYCQQLYTWPPRTFGGGTKVEIK | 8.84 | 3.59 | – | 73 | 72 | 69 | – | – | – | – | –
6299 (antibody, V domains shown) VH: QVQLVQSGAEVKKPGSSVKVSCKASGGTLSGYAISWVRQAPGQGLEWMGNIIPGFGTANYAQKSQGRVTITADESTSTAYMELSSLRSEDTAVYYCARSGGTRYGMLDVWGQGTMVTVSS VL: EIVMTQSPATLSVSPGERATLSCRASQSVGSNLAWYQQKPGQAPRLLIYGASTRATGIPARFSGSGSGTEFTLTISSLQSEDFAVYYCQQSYLWPPRTFGGGTKVEIK | – | – | – | – | – | – | 70 | – | – | – | –
5896 (antibody, V domains shown) VH: QLQLQESGPGLVKPSETLSLTCTVSGGSISSSSYYWGWIRQPPGKGLEWIGSIYRSGSTYYNPSLKSRVTISVDTSKNQFSLKLSSVTAADTAVYYCARVGHGISYFDLWGRGTLVTVSS VL: EIVLTQSPATLSLSPGERATLSCRASQSVSSYLAWYQQKPGQAPRLLIYDASNRATGIPARFSGSGSGTDFTLTISSLEPEDFAVYYCQQSLTWPPRTFGGGTKVEIK | 3.35 | 3.46 | – | 65 | -4 | -3 | – | 5.72 | – | – | –
5897 (antibody, V domains shown) VH: QLQLQESGPGLVKPSETLSLTCTVSGGSISWSSYYWSWIRQPPGKGLEWIGSIYKSGRTYYNPSLKSRVTISVDTSKNQFSLKLSSVTAADTAVYYCARVGHGISYFDLWGRGTLVTVSS VL: EIVLTQSPATLSLSPGERATLSCRASQSVSSYLAWYQQKPGQAPRLLIYDASNRATGIPARFSGSGSGTDFTLTISSLEPEDFAVYYCQQSLTWPPRTFGGGTKVEIK | 0.528 | 1.39 | – | 62 | 1 | -3 | – | – | – | – | –
5903 (antibody, V domains shown) VH: QLQLQESGPGLVKPSETLSLTCTVSGGSISSSSYYWGWIRQPPGKGLEWIGMIYYSGSTWYNPSLKSRVTISVDTSKNQFSLKLSSVTAADTAVYYCARVGHGISYFDLWGRGTLVTVSS VL: EIVLTQSPATLSLSPGERATLSCRASQSVSSYLAWYQQKPGQAPRLLIYDASKRATGIPARFSGSGSGTDFTLTISSLEPEDFAVYYCQQVYTWPPRTFGGGTKVEIK | 3.12 | 1.38 | – | – | – | – | – | – | 7.27 | 72 | –
5905 (antibody, V domains shown) VH: QLQLQESGPGLVKPSETLSLTCTVSGGSISWSSYYWSWIRQPPGKGLEWIGSIYRSGRTYYNPSLKSRVTISVDTSKNQFSLKLSSVTAADTAVYYCARVGHGISYFDLWGRGTLVTVSS VL: EIVLTQSPATLSLSPGERATLSCRASQSVSSYLAWYQQKPGQAPRLLIYDASKRATGIPARFSGSGSGTDFTLTISSLEPEDFAVYYCQQVYTWPPRTFGGGTKVEIK | 1.33 | 3.91 | – | – | 65 | 72 | – | – | – | 65 | 0.83
